Results on 1 variant are retold here after IntAct's records for PubMed 11940652.

B1: Serine/threonine-protein kinase STE20 (Saccharomyces cerevisiae), Q03497 (parent)
chain: MSNDPSAVSELPDKDSLDNGISNDNERAMGGNGDGGDGLRLPRTTGTLNVNALQKGTNAAHEAGGYKSMDPAKNAETTNDDDNNVVSLDDPIQFTRVSSSSVISGMSSSMSPHSNIDETKSLEAVTPNINTSNITPDHSADNTFSTINASESDHQFNDTLLSKLSLTDSTETIENNATVKHQQPVASSTVNSNKSSTDIRRATPVSTPVISKPSMTTTPRQINSASHSLSNPKHKQHKPKVKPSKPEAKSKPVSVKKSFPSKNPLKNSSPPKKQTEKSYYSSSSKKRKSGSNSGTLRMKDVFTSFVQNIKRNSQDDKRASSSSNNSSSSSITTALRISTPYNAKHIHHVGVDSKTGEYTGLPEEWEKLLTSSGISKREQQQNMQAVMDIVKFYQDVTETNGEDKMFKTFNTTTGLPGSPQVSTPPANSFNKFPPSTSDSHNYGSRTGTPMSNHVMSPTLNTDSSSANGKFIPSRPAPKPPSSASASAPIIKSPVMNSAANVSPLKQTHAPTTPNRTSPNRSSISRNATLKKEEQPLPPIPPTKSKTSPIISTAHTPQQVAQSPKAPAQETVTTPTSKPAQARSLSKELNEKKREERERRKKQLYAKLNEICSDGDPSTKYANLVKIGQGASGGVYTAYEIGTNVSVAIKQMNLEKQPKKELIINEILVMKGSKHPNIVNFIDSYVLKGDLWVIMEYMEGGSLTDVVTHCILTEGQIGAVCRETLSGLEFLHSKGVLHRDIKSDNILLSMEGDIKLTDFGFCAQINELNLKRTTMVGTPYWMAPEVVSRKEYGPKVDIWSLGIMIIEMIEGEPPYLNETPLRALYLIATNGTPKLKEPENLSSSLKKFLDWCLCVEPEDRASATELLHDEYITEIAEANSSLAPLVKLARLKKVAENMDADEDNDDDNDNEHINKTNNCDDNNDSKETVNLDVTEDDKQK

The variants in this assay derive from B1. The conditions noted are these: with cdc42_yeast CDC42, P19073.
cdc42_yeast CDC42, P19073, sequence (P19073 whole entry): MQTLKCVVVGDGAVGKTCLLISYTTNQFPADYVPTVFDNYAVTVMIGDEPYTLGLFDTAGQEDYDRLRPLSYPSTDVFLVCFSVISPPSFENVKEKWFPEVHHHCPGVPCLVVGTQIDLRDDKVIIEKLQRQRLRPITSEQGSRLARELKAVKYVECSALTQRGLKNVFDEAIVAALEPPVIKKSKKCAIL
As to S338A;H345G, the “effect of a mutation on the interaction” value is given as “decreasing interaction”.
